Several values for one entry are separate records, joined by “and”; a condition that tells them apart may be missing. Identical values can stand only once.
Biological target: the molecule itself
Assay: cross-linking

B1: MISO-Flag (human C3orf33, long isoform), in U2OS cells (natural protein, UniProt Q6P1S2 1-294, looked up)
chain: MAGQPAATGSPSADKDGMEPNVVARISQWADDHLRLVRNISTGMAIAGIMLLLRSIRLTSKFTSSSDIPVEFIRRNVKLRGRLRRITENGLEIEHIPITLPIIASLRKEPRGALLVKLAGVELAETGKAWLQKELKPSQLLWFQLLGKENSALFCYLLVSKGGYFSVNLNEEILRRGLGKTVLVKGLKYDSKIYWTVHRNLLKAELTALKKGEGIWKEDSEKESYLEKFKDSWREIWKKDSFLKTTGSDFSLKKESYYEKLKRTYEIWKDNMNNCSLILKFRELISRINFRRKG
- stoichiometry N: 2 and 3

Source: doi:10.1101/2025.01.05.631328 (bioRxiv, 2025)
